Assays:
hHBV [1] = assay: Bio-layer interferometry: immobilized Fc-lectin and hHBV; format: binding, hepatitis B virus; conditions: hHBV, BLI, same condition as Siglec-3
Text: HBV was purified from blood samples of chronic hepatitis B (CHB) patients and HBV-transgenic mice, respectively. The protocol for HBV was purified by conventional method. HBV viral load was determinate by RT-PCR according to a standard HBV plasmid. HBsAg level was quantified by the HBsAg ELISA kit.
Sialidase S and sialidase C were used to remove sialoglycan from HBV or sialoglycans, respectively. Sialidase S releases only α(2-3)-linked Neu5Ac, while Sialidase C release both α(2-3) and α(2-6)-linked Neu5Ac. The sialidase-treated substrates were used for HBV-Siglec-3 binding assay and competition assay.
The interaction between human Siglec.Fc fusion protein and HBV was determined by the Bio-layer interferometry. […] The valence between HBV and human Siglec-3 was determined, which correlates the strength of multivalent association with that of monovalent association as shown in the following: • KA, surf=F (S×10^−2)^n−1×(KA, mono)^n, where KA, surf is thereciprocal of KD (HBV and Siglec-3), KA, mono is the reciprocal of KD (Biantennary a2-6 linked sialylglycopeptide and Siglec-3); n is the number of valency number; F is the statistic factor in the system and S is equal to 40(Å), which is estimated according to crystal structure of Siglec-3 published on RCSB protein data bank (Number: 5J0B). […]

hHBV [2] = assay: Immunoprecipitation of hHBV by Siglec ECD.Fc fusion proteins; format: binding, hepatitis B virus; conditions: Western blot with anti-HBs
Procedure: HBV ([…]) was incubated with recombinant Siglec-3/-7/-9 ECD.Fc fusion proteins, respectively, for 16 hours at 4° C., followed by incubation with Sepharose-conjugated Protein A beads for immunoprecipitation. The samples were fractionated on 12% SDS-PAGE before blotting to PVDF membrane and incubated in blocking buffer (0.05% Tween 20 in TBS containing 5% BSA) at 4° C. overnight. Blots were incubated with […] polyclonal goat-anti-HBs Ab for 1 hour at room temperature, followed by incubation with Streptavidin-HRP (1:10000 dilution) for another 1 hour at room temperature, and were visualized by ECL.

B1: Siglec-7: recombinant human Siglec-7 extracellular domain (ECD).Fc fusion protein (protein)
chain: QKSNRKDYSLTMQSSVTVQEGMCVHVRCSFSYPVDSQTDSDPVHGYWFRAGNDISWKAPVATNNPAWAVQEETRDRFHLLGDPQTKNCTLSIRDARMSDAGRYFFRMEKGNIKWNYKYDQLSVNVTALTHRPNILIPGTLESGCFQNLTCSVPWACEQGTPPMISWMGTSVSPLHPSTTRSSVLTLIPQPQHHGTSLTCQVTLPGAGVTTNRTIQLNVSYPPQNLTVTVFQGEGTASTALGNSSSLSVLEGQSLRLVCAVDSNPPARLSWTWRSLTLYPSQPSNPLVLELQVHLGDEGEFTCRAQNSLGSQHVSLNLSLQQEYTGKMRPVSGVLLGAVGGAGATALVFLSFCVIFIVVRSCRKKSARPAADVGDIGMKDANTIRGSASQGNLTESWADDNPRHHGLAAHSSGEEREIQYAPLSFHKGEPQDLSGQEATNNEYSEIKIPK
binding to hHBV (hHBV [1]): did not bind
pull down of hHBV HBsAg (immunoprecipitation) (hHBV [2]): cannot pull down
